# Where two headings read alike, the source gives them in different places.
# Key:
# [1] = target: T1, SARS-CoV-2 spike protein on live SARS-CoV-2 virus (SARS-CoV-2, UniProt P0DTC2 13-1273); test: cell-based or functional assay
# [2] = target: T2, SARS-CoV-2 spike protein on pseudovirus (SARS-CoV-2, UniProt P0DTC2 13-1273); test: cell-based or functional assay
# [3] = target: SARS-CoV-1 spike protein on HIV-based pseudovirus (SARS-CoV, UniProt P59594 14-1255); test: cell-based or functional assay
# [4] = target: T2, SARS-CoV-2 spike protein on pseudovirus; test: cell-based or functional assay; remark: listed apart in the source
# [5] = target: T1, SARS-CoV-2 spike protein on live …; test: cell-based or functional assay; remark: listed apart in the source
# [6] = target: recombinant SARS-CoV-2 spike (S) protein trimer (SARS-CoV-2, UniProt P0DTC2 13-1213)
binder,measurement,setting,value
Ab7 IgM (antibody) VH: EVQLVESGGGLVQPGGSLRLSCAVSGFTVSSNYMSWVRQAPGKGLEWVSVIYTGGGTYYADSVKGRFTISRDNSKNTLYLQMNTLRAEDTTVYYCARGDGSYYRAFDYWGQGTLVTVSS VL: DIQMTQSPSSLSASVGDRVTITCRASQSISNYLNWYHQKPGKAPKLLIYAASSLQSGVPSRFSGSGSGTDFTLTISSLQPEDFATYYCQQSYSPPPTFGPGTKVEIK not shown,IgM Fold Improvement Over IgG1,[1],19 fold
same,"IgM IC50, SARS-CoV-2 live virus microneutralization",[1],0.0016 µg/mL
same,IgM Fold Improvement Over IgG1,[2],8.8 fold
same,"IgM IC50, SARS-CoV-2 pseudovirus neutralization",[2],0.042 ng/mL
"Ab7 IgG (antibody, V domains shown) VH: EVQLVESGGGLVQPGGSLRLSCAVSGFTVSSNYMSWVRQAPGKGLEWVSVIYTGGGTYYADSVKGRFTISRDNSKNTLYLQMNTLRAEDTTVYYCARGDGSYYRAFDYWGQGTLVTVSS VL: DIQMTQSPSSLSASVGDRVTITCRASQSISNYLNWYHQKPGKAPKLLIYAASSLQSGVPSRFSGSGSGTDFTLTISSLQPEDFATYYCQQSYSPPPTFGPGTKVEIK","IgG IC50, SARS-CoV-2 live virus microneutralization",[1],0.03 µg/mL
same,"IgG IC50, SARS-CoV-2 pseudovirus neutralization",[2],0.00037 µg/mL
CR3022 IgA2m2 + J (antibody) VH: QMQLVQSGTEVKKPGESLKISCKGSGYGFITYWIGWVRQMPGKGLEWMGIIYPGDSETRYSPSFQGQVTISADKSINTAYLQWSSLKASDTAIYYCAGGSGISTPMDVWGQGTTVTVSS VL: not shown not shown,"IC50, SARS-CoV-1 pseudovirus neutralization",[3],2.3 µg/mL
same,"IC50, SARS-CoV-2 pseudovirus neutralization",[4],> 100000 µg/mL
CR3022 IgA1 + J (antibody) VH: QMQLVQSGTEVKKPGESLKISCKGSGYGFITYWIGWVRQMPGKGLEWMGIIYPGDSETRYSPSFQGQVTISADKSINTAYLQWSSLKASDTAIYYCAGGSGISTPMDVWGQGTTVTVSS VL: not shown not shown,"IC50, SARS-CoV-1 pseudovirus neutralization",[3],1.9 µg/mL
same,"IC50, SARS-CoV-2 pseudovirus neutralization",[4],> 100000 µg/mL
CR3022 IgM + J (antibody) VH: QMQLVQSGTEVKKPGESLKISCKGSGYGFITYWIGWVRQMPGKGLEWMGIIYPGDSETRYSPSFQGQVTISADKSINTAYLQWSSLKASDTAIYYCAGGSGISTPMDVWGQGTTVTVSS VL: not shown not shown,"IC50, SARS-CoV-1 pseudovirus neutralization",[3],0.47 µg/mL
same,"IC50, SARS-CoV-2 pseudovirus neutralization",[4],> 100000 µg/mL
Ab8 IgM (antibody) VH: EVQLVESGGGLIQPGGSLRLSCAASGFTVSRNYMNWVRQAPGKGLEWVSVIYSGGSTFYADSVKGRFTISRDNSKNTLYLQMNSLRAEDTAVYYCARDASSYGIDWGQGTLVTVSS VL: not shown not shown,IgM Fold Improvement Over IgG1,[1],3.3 fold
same,"IgM IC50, SARS-CoV-2 live virus microneutralization",[1],0.028 µg/mL
same,"IgM IC50, SARS-CoV-2 pseudovirus neutralization",[2],2.7 ng/mL
"Ab8 IgG (antibody, V domains shown) VH: EVQLVESGGGLIQPGGSLRLSCAASGFTVSRNYMNWVRQAPGKGLEWVSVIYSGGSTFYADSVKGRFTISRDNSKNTLYLQMNSLRAEDTAVYYCARDASSYGIDWGQGTLVTVSS VL: not shown","IgG IC50, SARS-CoV-2 live virus microneutralization",[1],0.093 µg/mL
same,"IgG IC50, SARS-CoV-2 pseudovirus neutralization",[2],0.0019 µg/mL
Ab3 IgM (antibody) VH: QVQLVESGGGLVKPGGSLRLSCAASGFTFSDYYMSWIRQAPGKGLEWVSYITYSGSTIYYADSVKGRFTISRDNAKSSLYLQMNSLRAEDTAVYYCARDRGTTMVPFDYWGQGTLVTVSS VL: DIQMTQSPSSLSASVGDRVTITCQASQDITNYLNWYQQKPGKAPKLLIYAASNLETGVPSRFSGSGSGTDFTFTISGLQPEDIATYYCQQYDNLPLTFGGGTKVEIK not shown,"IgM IC50, SARS-CoV-2 live virus microneutralization",[1],0.0038 µg/mL
same,"IgM IC50, SARS-CoV-2 pseudovirus neutralization",[2],0.11 ng/mL
"Ab3 IgG (antibody, V domains shown) VH: QVQLVESGGGLVKPGGSLRLSCAASGFTFSDYYMSWIRQAPGKGLEWVSYITYSGSTIYYADSVKGRFTISRDNAKSSLYLQMNSLRAEDTAVYYCARDRGTTMVPFDYWGQGTLVTVSS VL: DIQMTQSPSSLSASVGDRVTITCQASQDITNYLNWYQQKPGKAPKLLIYAASNLETGVPSRFSGSGSGTDFTFTISGLQPEDIATYYCQQYDNLPLTFGGGTKVEIK","IgG IC50, SARS-CoV-2 pseudovirus neutralization",[2],0.00057 µg/mL
Ab1 IgM (antibody) VH: EVQLVESGGGLVQPGGSLRLSCAASGFTVSSNYMSWVRQAPGKGLEWVSVIYSGGSTFYADSVKGRFTISRDNSMNTLFLQMNSLRAEDTAVYYCARVLPMYGDYLDYWGQGTLVTVSS VL: not shown not shown,IgM Fold Improvement Over IgG1,[1],10 fold
same,"IgM IC50, SARS-CoV-2 live virus microneutralization",[1],0.013 µg/mL
same,IgM Fold Improvement Over IgG1,[2],67 fold
same,"IgM IC50, SARS-CoV-2 pseudovirus neutralization",[2],0.15 ng/mL
"Ab1 IgG (antibody, V domains shown) VH: EVQLVESGGGLVQPGGSLRLSCAASGFTVSSNYMSWVRQAPGKGLEWVSVIYSGGSTFYADSVKGRFTISRDNSMNTLFLQMNSLRAEDTAVYYCARVLPMYGDYLDYWGQGTLVTVSS VL: not shown","IgG IC50, SARS-CoV-2 live virus microneutralization",[1],0.13 µg/mL
same,"IgG IC50, SARS-CoV-2 pseudovirus neutralization",[2],0.01 µg/mL
Ab4 IgM (antibody) VH: QVQLVESGGGVVQPGRSLRLSCAASGFTFSNYAMYWVRQAPGKGLEWVAVISYDGSNKYYADSVKGRFTISRDNSKNTLYLQMNSLRTEDTAVYYCASGSDYGDYLLVYWGQGTLVTVSS VL: QSALTQPASVSGSPGQSITISCTGTSSDVGGYNYVSWYQQHPGKAPKLMIYDVSKRPSGVSNRFSGSKSGNTASLTISGLQSEDEADYYCNSLTSISTWVFGGGTKLTVL not shown,IgM Fold Improvement Over IgG1,[1],59 fold
same,"IgM IC50, SARS-CoV-2 live virus microneutralization",[1],0.0031 µg/mL
same,IgM Fold Improvement Over IgG1,[2],31 fold
same,"IgM IC50, SARS-CoV-2 pseudovirus neutralization",[2],0.058 ng/mL
"Ab12 IgG (antibody, V domains shown) VH: not shown VL: QSALTQPASVSGSPGQSITISCTGTSSDVGGYNYVSWYQQHPGKAPKLMIYDVSKRPSGVSNRFSGSKSGNTASLTISGLQAEDEGDYYCSSYTSSSTWVFGGGTKLTVL","IgG IC50, SARS-CoV-2 live virus microneutralization",[5],2.7 µg/mL
same,"IgG IC50, SARS-CoV-2 pseudovirus neutralization",[2],0.077 µg/mL
Ab12 IgM (antibody) VH: not shown VL: QSALTQPASVSGSPGQSITISCTGTSSDVGGYNYVSWYQQHPGKAPKLMIYDVSKRPSGVSNRFSGSKSGNTASLTISGLQAEDEGDYYCSSYTSSSTWVFGGGTKLTVL not shown,IgM Fold Improvement Over IgG1,[5],330 fold
same,"IgM IC50, SARS-CoV-2 live virus microneutralization",[5],0.0081 µg/mL
same,IgM Fold Improvement Over IgG1,[2],180 fold
same,"IgM IC50, SARS-CoV-2 pseudovirus neutralization",[2],0.42 ng/mL
"Ab4 IgG (antibody, V domains shown) VH: QVQLVESGGGVVQPGRSLRLSCAASGFTFSNYAMYWVRQAPGKGLEWVAVISYDGSNKYYADSVKGRFTISRDNSKNTLYLQMNSLRTEDTAVYYCASGSDYGDYLLVYWGQGTLVTVSS VL: QSALTQPASVSGSPGQSITISCTGTSSDVGGYNYVSWYQQHPGKAPKLMIYDVSKRPSGVSNRFSGSKSGNTASLTISGLQSEDEADYYCNSLTSISTWVFGGGTKLTVL","IgG IC50, SARS-CoV-2 live virus microneutralization",[1],0.18 µg/mL
same,"IgG IC50, SARS-CoV-2 pseudovirus neutralization",[2],0.0018 µg/mL
Ab11 IgM (antibody) VH: QVQLVQSGAEVKKPGSSVKVSCKASGGTFSSYAISWVRQAPGQGLEWMGGNIPIFGTANYAQKFQGRVTITADESTSTAYMELSSLRSEDTAVYYCARGVGYRGVIPLNWFDPWGQGTVVTVSS VL: EIVMTQSPATLSVSPGERATLSCRASQSVSSDLAWYQHKPGQAPRLLIYGASTRATGIPVRFSGSGSGTEFTLTISSLQSEDFAVYYCQQYNNWPPFTFGGGTKVEIK not shown,IgM Fold Improvement Over IgG1,[5],> 870 fold
same,"IgM IC50, SARS-CoV-2 live virus microneutralization",[5],0.057 µg/mL
same,IgM Fold Improvement Over IgG1,[2],86 fold
same,"IgM IC50, SARS-CoV-2 pseudovirus neutralization",[2],3.7 ng/mL
"Ab11 IgG (antibody, V domains shown) VH: QVQLVQSGAEVKKPGSSVKVSCKASGGTFSSYAISWVRQAPGQGLEWMGGNIPIFGTANYAQKFQGRVTITADESTSTAYMELSSLRSEDTAVYYCARGVGYRGVIPLNWFDPWGQGTVVTVSS VL: EIVMTQSPATLSVSPGERATLSCRASQSVSSDLAWYQHKPGQAPRLLIYGASTRATGIPVRFSGSGSGTEFTLTISSLQSEDFAVYYCQQYNNWPPFTFGGGTKVEIK","IgG IC50, SARS-CoV-2 live virus microneutralization",[5],> 50 µg/mL
same,"IgG IC50, SARS-CoV-2 pseudovirus neutralization",[2],0.32 µg/mL
Ab10 IgM (antibody) VH: QITLKESGPTLVKPTQTLTLTCTFSGFSLSTSGVGVGWIRQPPGKALEWLALIYWDDDKRYSPSLKSRLTITKDTSKNQVVLTMTNMDPVDTATYYCAHHKIERIFDYWGQGTLVTVSS VL: QSALAQPASVSGSPGQSITISCTGTSSDVGAYNYVSWYQQHPGKAPKLMIYDVSKRPSGVSNRFSGSKSGNTASLTISGLQAEDEADYYCSSYTTSSTVFGGGTKLTVL not shown,IgM Fold Improvement Over IgG1,[5],390 fold
same,"IgM IC50, SARS-CoV-2 live virus microneutralization",[5],0.0012 µg/mL
same,EC50 (read off the curve),[6],~0.3 nM
same,IgM Fold Improvement Over IgG1,[2],64 fold
same,"IgM IC50, SARS-CoV-2 pseudovirus neutralization",[2],0.092 ng/mL
"Ab10 IgG (antibody, V domains shown) VH: QITLKESGPTLVKPTQTLTLTCTFSGFSLSTSGVGVGWIRQPPGKALEWLALIYWDDDKRYSPSLKSRLTITKDTSKNQVVLTMTNMDPVDTATYYCAHHKIERIFDYWGQGTLVTVSS VL: QSALAQPASVSGSPGQSITISCTGTSSDVGAYNYVSWYQQHPGKAPKLMIYDVSKRPSGVSNRFSGSKSGNTASLTISGLQAEDEADYYCSSYTTSSTVFGGGTKLTVL","IgG IC50, SARS-CoV-2 live virus microneutralization",[5],0.47 µg/mL
same,EC50 (read off the curve),[6],~1 nM
same,"IgG IC50, SARS-CoV-2 pseudovirus neutralization",[2],0.0059 µg/mL

# From US20220403009A1 (IGM BIOSCIENCES, published 2022)
